Our source for the binding result and Kd values is patent US8329653 (BUCK INSTITUTE FOR AGE RESEARCH, dated 2012).

The target of experiment [1] is T1, endogenous mouse netrin-1 (E16.5 embryonic cortex) (mouse, UniProt O09118 25-604).
T1 construct: also called mNet1
Description: co-immunoprecipitation of endogenous proteins from E16.5 mouse cortex.

Experiment [2] has as its target T2, endogenous mouse APP (embryonic cortex) (mouse, UniProt P12023 18-770).
T2 construct: whole, on cells; also called endogenous APP
The description is as above.

The target in experiment [3] is T3, Human Net 1-FlagM2 (Apotech), recombinant netrin-1 (human, UniProt O95631 25-604).
T3 construct: also called recombinant netrin-1 (Apotech Corp.); not shown: FlagM2 tag
Put plainly: ELISA, Aβ1-17 coated at 0.07 µg/ml, various netrin-1 concentrations. As for the experimental part: An anti-mouse antibody coupled to HRP (Jackson ImmunoResearch, Inc) was added at a concentration of 0.8 μg/ml for 1 hour at 37° C. Colorimetric intensity was measured at a wavelength of 490 nm using a Victor station (Wallac).
In general terms: An ELISA detects its analyte on a solid surface through an enzyme-linked reagent.

B1: endogenous mouse TrkC (E16.5 embryonic cortex) (receptor)
chain: not shown
notes: whole, on cells
Take B1: the binding result in experiment [1] is reported as “no binding”.

B2: endogenous mouse bFGF (E16.5 embryonic cortex) (ligand, UniProt P15655 10-154, looked up)
chain: PALPEDGGAAFPPGHFKDPKRLYCKNGGFFLRIHPDGRVDGVREKSDPHVKLQLQAEERGVVSIKGVCANRYLAMKEDGRLLASKCVTEECFFFERLESNNYNTYRSRKYSSWYVALKRTGQYKLGSKTGPGQKAILFLPMSAKS
For B2, the binding result in experiment [2] is “no binding”.

B3: endogenous mouse p75^ntr (E16.5 embryonic cortex) (receptor, UniProt Q9Z0W1 32-427, looked up)
chain: KETCSTGMYTHSGECCKACNLGEGVAQPCGANQTVCEPCLDSVTFSDVVSATEPCKPCTECLGLQSMSAPCVEADDAVCRCSYGYYQDEETGRCEACSVCGVGSGLVFSCQDKQNTVCEECPEGTYSDEANHVDPCLPCTVCEDTERQLRECTPWADAECEEIPGRWITRSTPPEGSDVTTPSTQEPEAPPERDLIASTVADTVTTVMGSSQPVVTRGTADNLIPVYCSILAAVVVGLVAYIAFKRWNSCKQNKQGANSRPVNQTPPPEGEKLHSDSGISVDSQSLHDQQTHTQTASGQALKGDGNLYSSLPLTKREEVEKLLNGDTWRHLAGELGYQPEHIDSFTHEACPVRALLASWGAQDSATLDALLAALRRIQRADIVESLCSESTATSPV
notes: whole, on cells; also called P75-NGFR
Consider B3, for which the binding result in experiment [1] was “no binding”.

B4: Aβ1-17 (the 17 first amino acids of Aβ) (peptide, UniProt P05067 672-688, looked up)
peptide: DAEFRHDSGYEVHHQKL
notes: domain: Aβ1-17
B4: the Kd in experiment [3] was 30 nM.

In general, Kd refers to the concentration at which binding is half-saturated.
